The results in this text go back to patent US20230248825.

Common to all, as to test: cell_activity
Common to all, as to details: primary human T cells; as pair; two GMCSF TALEN constructs used, value not split by construct

The test system of data set [1] is GMCSF_Tal_2 TALEN right monomer (artificial).
Data set [2] deals with GMCSF_Tal_1 TALEN left monomer (artificial).
Data set [3] has as its system GMCSF_Tal_2 TALEN left monomer (artificial).
Data set [4] has as its system GMCSF_Tal_1 TALEN right monomer (artificial).

In data set [1], “TGAGATGGTAAGTGAGA (double strand) [GMCSF_Tal_2 right half-site]” yielded an activity (% reduction in GMCSF secretion) of 90. In turn, “TGTGGCTGCAGAGCCTG (double strand) [GMCSF_Tal_1 left half-site]” showed an activity (% reduction in GMCSF secretion) in data set [2] of 90.

Sequence “TCCTGAACCTGAGTAGA (double strand) [GMCSF_Tal_2 left half-site]” yielded an activity (% reduction in GMCSF secretion) in data set [3] of 90.

Regarding “CACTGTGGCCTGCAGCA (double strand) [GMCSF_Tal_1 right half-site]”, in data set [4], the activity (% reduction in GMCSF secretion) was 90.
